# B1: lipocalin 15 (protein, listed as Homo sapiens)
# chain: MEVLLQPDFNAEKFSGLWYVVSMASDCRVFLGKKDHLSMSTRAIRPTEEGGLHVHMEFPGADGCNQVDAEYLKVGSEGHFRVPALGYLDVRIVDTDYSSFAVLYIYKELEGALSTMVQLYSRTQDVSPQALKSFQDFYPTLGLPKDMMVMLPQSDACNPESKEAP
# notes: secreted protein produced in the olfactory mucosa and secreted into the olfactory mucus; recombinant hLCN15 prepared in E. coli
# Tested on: olfactory receptor (OR X)
# Test: Luciferase reporter assay using olfactory receptor-expressing HEK293T cells, effect of concurrent addition of LCN15
# Type: cell-based, human
# Settings: mixed solution of isovaleric acid (30 μM) and LCN15 (1 μM) compared to isovaleric acid (30 μM) alone; 3 hours, 37° C.
# Excerpt: A human olfactory receptor gene was cloned by a PCR method using a human olfactory receptor gene purchased from TrueClone cDNA Clone Collection (OriGene) as a template base on sequence information registered in GenBank. Each gene amplified by the PCR method was subcloned into downstream of a Rho tag sequence of a Rho-pME18S vector (K. Kajiya et al., Journal of Neuroscience, 15 Aug. 2001, 21 (16) 6018-6025, which is incorporated herein by reference in its entirety) using EcoRI and XhoI sites to obtain an expression vector for the human olfactory receptor.
# HEK293T cells that expressed the olfactory receptor (OR X) was prepared by the following procedure. […]
# The olfactory receptor (OR X) expressed on HEK293T cells is conjugated with Golf to activate adenylate cyclase, thereby increases an amount of intracellular cAMP. In this Example, the measurement for response of the olfactory receptor to a test substance employed luciferase reporter gene assay in which increase of the amount of intracellular cAMP was monitored as increase of a luminescence value derived from firefly luciferase. […] In conjugation with this, a luminescence value derived from Renilla luciferase was used as an internal standard for correcting errors of a gene transfer efficiency and a cell number in each well. […]
molecule,measurement,value
B1,response intensity of the olfactory receptor (Luc/hRLuc value),more enhanced

# — US20210239714A1, “TEST METHOD FOR OLFACTORY MUCOSA OR OLFACTORY MUCUS IN MAMMALS” (Ajinomoto Co., Inc., priority 2018, published 2021)
